Values of other authors as cited in US20200069786A1, “COMPOSITION AND PROCESS FOR PREPARING VACCINE” (TREOS BIO ZRT., priority 2018, published 2020).
Where two headings read alike, the source gives them in different places.

B1: MAGE-A9 (protein, UniProt P43362 1-315, looked up)
Melanoma-associated antigen 9: MSLEQRSPHCKPDEDLEAQGEDLGLMGAQEPTGEEEETTSSSDSKEEEVSAAGSSSPPQSPQGGASSSISVYYTLWSQFDEGSSSQEEEEPSSSVDPAQLEFMFQEALKLKVAELVHFLLHKYRVKEPVTKAEMLESVIKNYKRYFPVIFGKASEFMQVIFGTDVKEVDPAGHSYILVTALGLSCDSMLGDGHSMPKAALLIIVLGVILTKDNCAPEEVIWEALSVMGVYVGKEHMFYGEPRKLLTQDWVQENYLEYRQVPGSDPAHYEFLWGSKAHAETSYEKVINYLVMLNAREPICYPSLYEEVLGEEQEGV
B2: FTHL17 (protein, UniProt Q9BXU8 1-183, looked up)
Ferritin heavy …: MATAQPSQVRQKYDTNCDAAINSHITLELYTSYLYLSMAFYFNRDDVALENFFRYFLRLSDDKMEHAQKLMRLQNLRGGHICLHDIRKPECQGWESGLVAMESAFHLEKNVNQSLLDLYQLAVEKGDPQLCHFLESHYLHEQVKTIKELGGYVSNLRKICSPEAGLAEYLFDKLTLGGRVKET
B3: MAGE-A4 (protein, UniProt P43358 1-317, looked up)
Melanoma-associated antigen 4: MSSEQKSQHCKPEEGVEAQEEALGLVGAQAPTTEEQEAAVSSSSPLVPGTLEEVPAAESAGPPQSPQGASALPTTISFTCWRQPNEGSSSQEEEGPSTSPDAESLFREALSNKVDELAHFLLRKYRAKELVTKAEMLERVIKNYKRCFPVIFGKASESLKMIFGIDVKEVDPASNTYTLVTCLGLSYDGLLGNNQIFPKTGLLIIVLGTIAMEGDSASEEEIWEELGVMGVYDGREHTVYGEPRKLLTQDWVQENYLEYRQVPGSNPARYEFLWGPRALAETSYVKVLEHVVRVNARVRIAYPSLREAALLEEEEGV
B4: DPPA2 (protein, UniProt Q7Z7J5 1-298, looked up)
Developmental …: MSDANLDSSKKNFLEGEVDDEESVILTLVPVKDDANMEQMEPSVSSTSDVKLEKPKKYNPGHLLQTNEQFTAPQKARCKIPALPLPTILPPINKVCRDTLRDWCQQLGLSTNGKKIEVYLRLHRHAYPEQRQDMPEMSQETRLQRCSRKRKAVTKRARLQRSYEMNERAEETNTVEVITSAPGAMLASWARIAARAVQPKALNSCSIPVSVEAFLMQASGVRWCVVHGRLLSADTKGWVRLQFHAGQAWVPTTHRRMISLFLLPACIFPSPGIEDNMLCPDCAKRNKKMMKRLMTVEK
B5: AKAP-3 (protein, UniProt O75969 1-853, looked up)
A-kinase anchor protein 3: MSEKVDWLQSQNGVCKVDVYSPGDNQAQDWKMDTSTDPVRVLSWLRRDLEKSTAEFQDVRFKPGESFGGETSNSGDPHKGFSVDYYNTTTKGTPERLHFEMTHKEIPCQGPRAQLGNGSSVDEVSFYANRLTNLVIAMARKEINEKIDGSENKCVYQSLYMGNEPTPTKSLSKIASELVNETVSACSRNAAPDKAPGSGDRVSGSSQSPPNLKYKSTLKIKESTKERQGPDDKPPSKKSFFYKEVFESRNGDYAREGGRFFPRERKRFRGQERPDDFTASVSEGIMTYANSVVSDMMVSIMKTLKIQVKDTTIATILLKKVLLKHAKEVVSDLIDSFLRNLHSVTGTLMTDTQFVSAVKRTVFSHGSQKATDIMDAMLRKLYNVMFAKKVPEHVRKAQDKAESYSLISMKGMGDPKNRNVNFAMKSETKLREKMYSEPKSEEETCAKTLGEHIIKEGLTLWHKTQQKECKSLGFQHAAFEAPNTQRKPASDISFEYPEDIGNLSLPPYPPEKPENFMYDSDSWAEDLIVSALLLIQYHLAQGGRRDARSFVEAAGTTNFPANEPPVAPDESCLKSAPIVGDQEQAEKKDLRSVFFNFIRNLLSETIFKRDQSPEPKVPEQPVKEDRKLCERPLASSPPRLYEDDETPGALSGLTKMAVSQIDGHMSGQMVEHLMNSVMKLCVIIAKSCDASLAELGDDKSGDASRLTSAFPDSLYECLPAKGTGSAEAVLQNAYQAIHNEMRGTSGQPPEGCAAPTVIVSNHNLTDTVQNKQLQAVLQWVAASELNVPILYFAGDDEGIQEKLLQLSAAAVDKGCSVGEVLQSVLRYEKERQLNEAVGNVTPLQLLDWLMVNL
B6: AKAP-4 (protein, UniProt Q5JQC9 189-854, looked up)
A-kinase anchor protein 4: QSPSAPPAKPPSTQRAVISPDGECSIDDLSFYVNRLSSLVIQMAHKEIKEKLEGKSKCLHHSICPSPGNKERISPRTPASKIASEMAYEAVELTAAEMRGTGEESREGGQKSFLYSELSNKSKSGDKQMSQRESKEFADSISKGLMVYANQVASDMMVSLMKTLKVHSSGKPIPASVVLKRVLLRHTKEIVSDLIDSCMKNLHNITGVLMTDSDFVSAVKRNLFNQWKQNATDIMEAMLKRLVSALIGEEKETKSQSLSYASLKAGSHDPKCRNQSLEFSTMKAEMKERDKGKMKSDPCKSLTSAEKVGEHILKEGLTIWNQKQGNSCKVATKACSNKDEKGEKINASTDSLAKDLIVSALKLIQYHLTQQTKGKDTCEEDCPGSTMGYMAQSTQYEKCGGGQSAKALSVKQLESHRAPGPSTCQKENQHLDSQKMDMSNIVLMLIQKLLNENPFKCEDPCEGENKCSEPRASKAASMSNRSDKAEEQCQEHQELDCTSGMKQANGQFIDKLVESVMKLCLIMAKYSNDGAALAELEEQAASANKPNFRGTRCIHSGAMPQNYQDSLGHEVIVNNQCSTNSLQKQLQAVLQWIAASQFNVPMLYFMGDKDGQLEKLPQVSAKAAEKGYSVGGLLQEVMKFAKERQPDEAVGKVARKQLLDWLLANL
B7: SPAG1 (protein, UniProt Q07617 1-926, looked up)
Sperm-associated antigen 1: MTTKDYPSLWGFGTTKTFKIPIEHLDFKYIEKCSDVKHLEKILCVLRSGEEGYYPELTEFCEKHLQALAPESRALRKDKPAATAASFTAEEWEKIDGDIKSWVSEIKKEEDKMHFHETETFPAMKDNLPPVRGSNSCLHVGKEKYSKRPTKKKTPRDYAEWDKFDVEKECLKIDEDYKEKTVIDKSHLSKIETRIDTAGLTEKEKDFLATREKEKGNEAFNSGDYEEAVMYYTRSISALPTVVAYNNRAQAEIKLQNWNSAFQDCEKVLELEPGNVKALLRRATTYKHQNKLREATEDLSKVLDVEPDNDLAKKTLSEVERDLKNSEAASETQTKGKRMVIQEIENSEDEEGKSGRKHEDGGGDKKPAEPAGAARAAQPCVMGNIQKKLTGKAEGGKRPARGAPQRGQTPEAGADKRSPRRASAAAAAGGGATGHPGGGQGAENPAGLKSQGNELFRSGQFAEAAGKYSAAIALLEPAGSEIADDLSILYSNRAACYLKEGNCSGCIQDCNRALELHPFSMKPLLRRAMAYETLEQYGKAYVDYKTVLQIDCGLQLANDSVNRLSRILMELDGPNWREKLSPIPAVPASVPLQAWHPAKEMISKQAGDSSSHRQQGITDEKTFKALKEEGNQCVNDKNYKDALSKYSECLKINNKECAIYTNRALCYLKLCQFEEAKQDCDQALQLADGNVKAFYRRALAHKGLKNYQKSLIDLNKVILLDPSIIEAKMELEEVTRLLNLKDKTAPFNKEKERRKIEIQEVNEGKEEPGRPAGEVSMGCLASEKGGKSSRSPEDPEKLPIAKPNNAYEFGQIINALSTRKDKEACAHLLAITAPKDLPMFLSNKLEGDTFLLLIQSLKNNLIEKDPSLVYQHLLYLSKAERFKMMLTLISKGQKELIEQLFEDLSDTPNNHFTLEDIQALKRQYEL
B8: HOM-TES-85 (protein, UniProt Q9P127 1-313, looked up)
Leucine zipper protein 4: MASFRKLTLSEKVPPNHPSRKKVNFLDMSLDDIIIYKELEGTNAEEEKNKRQNHSKKESPSRQQSKAHRHRHRRGYSRCRSNSEEGNHDKKPSQKPSGFKSGQHPLNGQPLIEQEKCSDNYEAQAEKNQGQSEGNQHQSEGNPDKSEESQGQPEENHHSERSRNHLERSLSQSDRSQGQLKRHHPQYERSHGQYKRSHGQSERSHGHSERSHGHSERSHGHSERSHGHSKRSRSQGDLVDTQSDLIATQRDLIATQKDLIATQRDLIATQRDLIVTQRDLVATERDLINQSGRSHGQSERHQRYSTGKNTITT
B9: SPAN-Xc (protein, UniProt Q9NY87 1-97, looked up)
Sperm protein associated with …: MDKQSSAGGVKRSVPCDSNEANEMMPETSSGYSDPQPAPKKLKTSESSTILVVRYRRNVKRTSPEELVNDHARENRINPLQMEEEEFMEIMVEIPAK

Test system: TSA
[1] = TSA expression rate in BLADDER cancer
[2] = TSA expression rate in Esophageal
[3] = TSA expression rate in HEAD and NECK
[4] = TSA expression rate in LEUKEMIAS
[5] = TSA expression rate in MELANOMA
[6] = TSA expression rate in PROSTATE cancer
[7] = TSA expression rate in Cervical cancer
[8] = TSA expression rate in GASTRIC cancer
[9] = TSA expression rate in LUNG cancer

Molecule	TSA Expression Rate (ER) (BREAST) [%]	TSA Expression Rate (ER) (HCC) [%]	TSA Expression Rate (ER) (OVARIAN) [%]	Expression Rate (ER) % [1] [%]	Expression Rate (ER) % [2] [%]	Expression Rate (ER) % [3] [%]	Expression Rate (ER) % (TSA expression rate in Kidney) [%]	Expression Rate (ER) % [4] [%]	Expression Rate (ER) % [5] [%]	TSA Expression Rate (ER) (BRAIN) [%]	TSA Expression Rate (ER) (LUNG) [%]	TSA Expression Rate (ER) (THYROID) [%]	Expression Rate (ER) % (TSA expression rate in CRC) [%]	Expression Rate (ER) % [6] [%]	TSA Expression Rate (ER) (PANCREATIC) [%]	Expression Rate (ER) % [7] [%]	Expression Rate (ER) % [8] [%]	Expression Rate (ER) % (TSA expression rate in PEDIATRIC) [%]	Expression Rate (ER) % [9] [%]	Expression Rate (ER) % (TSA expression rate in LYMPHOMAS) [%]
B1	44	5	37	61	55	44	55	9	12	–	–	–	–	–	–	–	–	–	–	–
B2	14	–	–	22	0	10	0	–	0	82	25	0	0	0	–	–	–	–	–	–
B3	9	7	37	27	76	42	17	36	30	11	27	0	18	0	2	23	24	41	–	–
B4	–	–	31	–	–	–	–	–	–	–	30	–	44	–	–	–	100	–	–	–
B5	40	50	48	–	–	–	–	–	–	–	46	–	83	–	–	–	89	–	–	–
B6	85	–	89	–	–	–	–	–	–	–	25	–	74	65	–	86	–	–	–	–
B7	31	11	31	–	–	7	11	–	–	–	71	–	55	27	93	–	–	–	–	–
B8	47	19	32	0	–	4	–	–	–	10	–	–	–	–	–	–	–	–	11	14
B9	26	60	0	9	0	–	–	4	70	–	–	–	24	–	0	–	0	–	17	–
